# Source: patent publication US20180265915A1, “TRANSCRIPTION FACTOR DECOYS” (priority 2008, published 2018)
# Entries after “also recorded” stand apart in the source; their conditions may differ. {P} = phosphate
# Columns and labels:
# [1] = tested on: Staphylococcus aureus EMRSA 16; experiment: Mouse sepsis model, tissue burden study; format: in vivo
# Experimental: The mouse sepsis study was performed by Euprotec (UK). Mice used in this study, male CD1 mice were supplied by Charles River (Margate UK) and were specific pathogen free (16-18 g at delivery). All mice weighed 22-25 g at the beginning of the experiment.
# For the tissue burden study, animals were treated in groups of 8 mice per treatment group, therefore 48 in total for the study. 2×10 ml cultures of Staphylococcus aureus EMRSA 16 were prepared and placed on orbital shaker (220 rpm) overnight at 37° C. The following day, the Staphylococcus aureus EMRSA 16 cultures were removed from shaker, pelleted and washed twice before being resuspended in saline to an OD of 0.132 (1.5×10^8 cfu/ml). This stock solution of Staphylococcus aureus EMRSA 16 was then further diluted 1:1.5 in saline (1×10^8 cfu/ml) i.e. 2.0×10^7 bacteria per mouse. 48 mice were then infected with 0.2 ml of the 1.0×10^8/mL suspension. The number of Staphylococcus aureus EMRSA 16 bacteria per mL in the remainder of the suspensions after inoculation was also counted to confirm infection load. Mice were treated 1, 9 and 17 hours post infection with either compound or vehicle, though vancomycin was only administered after 1h. The treatments were as previously a mixture of TFD/DOTAP/Lysostaphin using a concentration of InM/kg TFD in a 5:1 molar ratio with DOTAP and 63 μg/kg Lysostaphin. After 25 hours post infection all animals were weighed and then euthanized. The kidneys were immediately removed and homogenised in ice cold sterile phosphate buffered saline+0.05% Tween 80. Organ homogenates were quantitatively cultured onto CLED agar and incubated at 37° C. for up to 3 days and colonies counted. The data from the culture burdens was analysed by the Kruskal-Wallis test using Stats Direct.
# E. coli = experiment: FabB TFD growth assay with cerulenin in LB, polymixin co-transfectant; format: cell-based, Escherichia coli
# Experimental: For example, a FabB decoy which targets the regulation of genes essential for fatty acid synthesis may be tested against suitable strain, e.g. E. coli grown in e.g. Luria-Bertani LB media (1% [w/v] Bacto-tryptone, 0.5% [w/v] Yeast extract, 1% [w/v] NaCl) in the presence of an antibiotic which acts on the process of fatty acid synthesis, e.g. Cerulenin.
# The effect of TFDs on the growth of E. coli bacterial cultures was measured as described in Example 4.1 with a few modifications: the media used was LB; the co-transfectant used was 40 nM polymixin, rather than gramicidin; the media was also supplemented with 10 μg/ml Cerulenin (CER). CER is an antibiotic that acts on fatty acid synthesis.
# K. pneumoniae = experiment: KP_Sig TFD growth assay in vitro; format: cell-based, Klebsiella pneumoniae; conditions: PCR_TFD, transfected using a cell penetrating peptide
# Text: Cells were transfected as described in Example 13, using a cell penetrating peptide. […] The two controls used were: untreated cells (K. pneumoniae) and a control TFD consisting of a scrambled sequence.
# EMRSA15 = experiment: DB-TFD growth assay on EMRSA15 with Lysostaphin co-treatment; format: cell-based, Staphylococcus aureus; conditions: 10 nM DB-TFD; 0.5 to 2.5 pg/ml Lysostaphin
# Experimental: Growth assays were performed as described for Example 7.1 with the sole difference being that the media was supplemented with between 0.5 and 2.5 pg/ml Lysostaphin instead of Gramicidin. Lysostaphin is a lysozyme-like enzyme that is specific for the walls of S. aureus.
# EMRSA-16 = experiment: WalR_TFD in vitro growth and viable count assays on EMRSA-16; format: cell-based, Staphylococcus aureus; conditions: for effect on growth of EMRSA-16 in vitro: 1 nM TFD, DOTAP, Lysostaphin, BHI
# Experimental: S. aureus EMRSA16 cultures were grown and maintained in BHI media (Becton Dickenson). Frozen stocks were prepared by mixing equal volumes of a culture in early exponential growth (OD of 0.3 at A600) with 50% glycerol and freezing at −80° C.
# TFD-DOTAP complexes were formed by mixing 1 ug of TFD with 2 μg of DOTAP (Roche) and incubating at room temperature for 10 min on the bench. The TFD complex was then mixed with inoculated medium supplemented with 10 ng/ml Lysostaphin (Sigma; L9043), aliquoted into 96 well flat-bottomed plates and growth was analysed by culturing at 37° C. with shaking in a BioTek plate reader.
# EMRSA-16, an MRSA strain endemic in UK hospitals, was used in the study (Cox, Mallaghan et al. 1995). TFDs were mixed with a commercially available lipid formulation, DOTAP, and mixed with media inoculated with EMRSA-16 and Lysostaphin. Lysostaphin is a lysozyme agent that acts on the walls of S. aureus, use of it in this experiment was to thin the outer peptidoglycan layer of the bacteria and allow the TFD to transfect the cell following fusion of the DOTAP carrier with the exposed inner membrane of the bacterium. […] The bacteria that were not killed by WalR_TFD treatment were sub-cultured in order to determine whether there was any incidence of resistance. The process was repeated a total of four times and both the reduction in viable counts (FIG. 17B) and in vitro growth curves were recorded (FIG. 17C, black squares: bacteria in fourth passage).
# In order to determine whether TFDs killed bacteria on contact or needed prolonged exposure to work, EMRSA-16 were transfected with 1 nM WalR_TFD/DOTAP complex and incubated for 30 minutes before being microdiluted into fresh media, without any TFD complexes or Lysostaphin.
# [2] = tested on: clinically-isolated MRSA strain MRSA-5; experiment: Dumbbell Sig TFD growth assay on a clinically-isolated MRSA strain; format: cell-based, Staphylococcus aureus; conditions: 10 nM TFD, dumbbell configuration
# Experimental: A growth assay was performed as described in Example 5.1 using the Sig TFD in its dumbbell configuration and a clinically-isolated MRSA strain.
# [3] = statistical analysis of in vivo results
molecule,measurement,setting,value
"CN[C@H](CC(C)C)C(=O)N[C@H]1C(=O)N[C@@H](CC(N)=O)C(=O)N[C@H]2C(=O)N[C@H]3C(=O)N[C@H](C(=O)N[C@H](C(=O)O)c4cc(O)cc(O)c4-c4cc3ccc4O)[C@H](O)c3ccc(c(Cl)c3)Oc3cc2cc(c3O[C@@H]2O[C@H](CO)[C@@H](O)[C@H](O)[C@H]2O[C@H]2C[C@](C)(N)[C@H](O)[C@H](C)O2)Oc2ccc(cc2Cl)[C@H]1O [Vancomycin, vancomycin, reference compound]","Kruskal-Wallis all pairwise comparisons (Dwass-Steel-Chritchlow-Fligner) of kidney burden, versus Vehicle",[1]; [3],0.0173
"C/C=C/C/C=C/CCC(=O)[C@H]1O[C@H]1C(N)=O [cerulenin, reference compound]",effect of cerulenin on growth of E. coli,E. coli; 10 μg/ml Cerulenin,no noticeable effect on growth
same,cerulenin concentration at which it begins to inhibit cell growth,E. coli; in the presence of the control TFD,20 µg/mL
"KP_Sig: sigma 54 binding site from the K. pneumoniae glnA promoter, SEQ ID NO: 59, in a PCR_TFD (DNA TGGCACAGATTTCGCT; listed as DNA, chemistry not fully specified; listed as Klebsiella pneumoniae)",effect on K. pneumoniae cell growth in vitro,K. pneumoniae,prevented cell growth in vitro
same,effect on K. pneumoniae cell growth in vitro,K. pneumoniae; listed as KP_Sig TFD,kills K. pneumoniae in vitro
"WalR_TFD: dumbbell TFD containing the binding site for the WalR protein as in the lytM promoter, SEQ ID NOs: 48 & 49 (nucleic acid, listed as Staphylococcus aureus, dumbbell structure, further chemistry not given here) chain 1: CTTGGTTTTTCCAAGTAATGAATGAGTTTAAAGCCCATGTAAAAGGGGTATCAGTAC chain 2: CCCTCTTTTTGAGGGGTACTGATACCCCTTTTACATGGGCTTTAAACTCATTCATTA",reduction in kidney burden of EMRSA-16,"[1]; mice, systemic injection 1, 9 and 17 hours post infection, 1 nM TFD complex, compared to Scr_TFD control",as effective as vancomycin in killing EMRSA-16
same,"Kruskal-Wallis all pairwise comparisons (Dwass-Steel-Chritchlow-Fligner) of kidney burden, versus Vancomycin",[1]; [3],0.2549
same,"Kruskal-Wallis all pairwise comparisons (Dwass-Steel-Chritchlow-Fligner) of kidney burden, versus Vehicle",[1]; [3],0.0062
same,inhibition of bacterial growth of EMRSA15,EMRSA15,prevents growth of EMRSA15
same,effect on growth of EMRSA-16 in vitro,EMRSA-16,prevented growth of EMRSA-16
same,growth after limited contact,"EMRSA-16; 1 nM, incubated 30 minutes then diluted into fresh media without TFD or Lysostaphin, followed 48 hours",unable to grow; also recorded: no growth was observed
same,"total viable counts, reduction in number of living cells",EMRSA-16; after in vitro growth experiment,reduced the number of living cells by five-fold orders of magnitude
same,bacteriocidal activity against MRSA,EMRSA-16; in vitro and in vivo,rapid bacteriocidal activity at nanomolar concentrations
same,development of resistance to TFD-mediated killing,"EMRSA-16; surviving bacteria sub-cultured and re-treated, repeated rounds",No resistance mechanism has been detected; also recorded: no evidence for the development of a resistance mechanism
"SA3 TFD: Sig dumbbell TFD from phosphorylated oligonucleotides SEQ ID NOs: 40 & 41 (nucleic acid, listed as Staphylococcus aureus, 5' {P}, sugars by position and backbone not given here; further chemistry not fully specified) chain 1: CTTGGTTTTTCCAAGGAAGATTAGAAATTATTTCGATGGGTATATAATA chain 2: CCGTCTTTTTGACGGTATTATATACCCATCGAAATAATTTCTAATCTTC",inhibition of bacterial growth of EMRSA15,EMRSA15,capable of inhibiting bacterial growth
same,inhibition of cell growth of clinically-isolated MRSA strain,[2],repress the growth
"Scr_TFD: TFD containing a scrambled version of the WalR binding site, SEQ ID NOs: 46 & 47 (nucleic acid, listed as Staphylococcus aureus, dumbbell structure, further chemistry not given here) chain 1: CTTGGTTTTTCCAAGGTAATATGACAAGATTGTAAATGACCTAGTTGAGAGATGCCA chain 2: CCCTCTTTTTGAGGGTGGCATCTCTCAACTAGGTCATTTACAATCTTGTCATATTAC","Kruskal-Wallis all pairwise comparisons (Dwass-Steel-Chritchlow-Fligner) of kidney burden, versus 1 nM WalR_TFD",[1]; [3],0.0043
same,"Kruskal-Wallis all pairwise comparisons (Dwass-Steel-Chritchlow-Fligner) of kidney burden, versus Vancomycin",[1]; [3],0.0062
same,"Kruskal-Wallis all pairwise comparisons (Dwass-Steel-Chritchlow-Fligner) of kidney burden, versus Vehicle",[1]; [3],0.7804
same,inhibition of bacterial growth of EMRSA15,EMRSA15,no effect
same,effect on growth of EMRSA-16 in vitro,EMRSA-16,no detectable effect on bacterial growth
